Positions count from the first letter of the chain named.
T1: human His6-GITR (human, UniProt Q9Y5U5 26-162)
T1 construct: His6-tagged recombinant protein; also called hGITR-His; human GITR-His
T1 sequence: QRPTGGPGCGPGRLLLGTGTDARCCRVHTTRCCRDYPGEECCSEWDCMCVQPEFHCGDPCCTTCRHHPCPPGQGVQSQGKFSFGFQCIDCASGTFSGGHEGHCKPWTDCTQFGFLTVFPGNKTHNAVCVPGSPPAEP

T2: cynomolgus monkey His6-GITR (cynomolgus monkey)
T2 construct: His6-tagged recombinant protein; also called cGITR-His; cyno GITR-His
T2 chain: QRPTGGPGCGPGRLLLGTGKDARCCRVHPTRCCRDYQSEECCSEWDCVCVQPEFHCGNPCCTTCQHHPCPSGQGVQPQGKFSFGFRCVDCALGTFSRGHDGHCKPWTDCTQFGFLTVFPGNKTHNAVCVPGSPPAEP

T3: mouse His6-GITR (mouse, UniProt O35714 20-153)
T3 construct: His6-tagged recombinant protein; also called mGITR-His; mouse GITR-His
T3 sequence: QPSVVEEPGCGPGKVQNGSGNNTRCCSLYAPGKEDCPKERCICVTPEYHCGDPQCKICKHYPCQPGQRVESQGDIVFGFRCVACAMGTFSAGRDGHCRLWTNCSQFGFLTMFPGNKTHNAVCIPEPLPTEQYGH

B1: GITR-Mab-36 scFv (scFv, V domains shown)
VH: QVQLVQSGAEVKKPGASVKVSCKASGYTFTRNYIHWVRQAPGQGLEWMGWINPKSGGTKYAQKFQGRVTMTRDTSTSTVYMELSSLRSEDTAVYYCARESGVVATEYWYFDLWGRGTLVTVSS
VL: not shown
notes: scFv in periplasmic extract, V5 tag
B2: GITR-Mab-4 scFv (scFv, V domains shown)
VH: EVQLLESGGGLVQPGGSLRLSCAASGFTFSSYDMHWVRQAPGKGLEWVSAISSSGGSIYYADSVKGRFTISRDNSKNTLYLQMNSLRAEDTAVYYCARDSVVVPKGPNRKYYYYGMDVWGQGTKVTVSS
VL: not shown
notes: as for B1
B3: GITR-Mab-33 scFv (scFv, V domains shown)
VH: EVQLLESGGGLVKPGGSLRLSCAASGFMFSSYSMNWVRQAPGKGLEWVSYISGNSGYTNYADSVKGRFTISRDDSKNTLYLQMNSLKTEDTAVYYCARRLHGMDVWGQGTTVTVSS
VL: DIQMTQSPSSLSASVGDRVTITCRASQSISTWLAWYQQKPGKAPKLLIYDASNLETGVPSRFSGSGSGTDFTLTISSLQPEDFATYYCQQAYRFPVAFGGGTKVEIK
notes: as for B1
B4: GITR-Mab-39 scFv (scFv, V domains shown)
VH: EVQLLESGGGLVKPGGSLRLSCAASGFTFSSYWMSWVRQAPGKGLEWVSSISWSSTYIYYADSVKGRFTISRDDSKNTLYLQMNSLKTEDTAVYYCARDGQLGHWHFDLWGRGTLVTVSS
VL: B3 VL with T31D, D50E, N53K, E55A, A91S, R93T, F94T, V96L, A97T
notes: as for B1
B5: GITR-Mab-40 scFv (scFv, V domains shown)
VH: EVQLLESGGGLVQPGGSLRLSCAASGFTFRNHWMSWVRQAPGKGLEWVSGISWNSGSIDYADSVKGRFTISRDNSKNTLYLQMNSLRAEDTAVYYCAREEYATFDYWGQGTLVTVSS
VL: not shown
notes: as for B1
B6: GITR-Mab-47 scFv (scFv, V domains shown)
VH: QVQLVQSGAEVKKPGSSVKVSCKASGGTFSTYAINWVRQAPGQGLEWMGIINPTDGDTSYAQKFQGRVTITADESTSTAYMELSSLRSEDTAVYYCARAAYYYYGMDVWGQGTTVTVSS
VL: not shown
notes: as for B1
B7: GITR-Mab-34 scFv (scFv, V domains shown)
VH: EVQLLESGGGLVQPGGSLRLSCAASGFTFSSYWMHWVRQAPGKGLEWVSVISNSGGATYYADSVKGRFTISRDNSKNTLYLQMNSLRAEDTAVYYCAREGWGYGMDVWGQGTTVTVSS
VL: DIQMTQSPSSLSASVGDRVTITCRASQDIRNYLAWYQQKPGKAPKLLIYTASTLQSGVPSRFSGSGSGTDFTLTISSLQPEDFATYYCQQTFRTPLTFGGGTKVEIK
notes: as for B1
B8: GITR-Mab-46 scFv (scFv, V domains shown)
VH: QVQLVQSGAEVKKPGASVKVSCKASGGSFSNYAINWVRQAPGQGLEWMGWMNPYSGNTGYAQKFQGRVTMTRDTSTSTVYMELSSLRSEDTAVYYCAREITANYYYGMDVWGQGTKVTVSS
VL: DIQMTQSPSSLSASVGDRVTITCQASQDISNYLNWYQQKPGKAPKLLIYEASVLESGVPSRFSGSGSGTDFTLTISSLQPEDFATYYCQQSYTTQYTFGQGTKVEIK
notes: as for B1
B9: GITR-Mab-32 scFv (scFv, V domains shown)
VH: QVQLVQSGAEVKKPGASVKVSCKASGGTFSSYAISWVRQAPGQGLEWMGWMNPNSGDTGYAQKFQGRVTMTRDTSTSTVYMELSSLRSEDTAVYYCARGPWYFDLWGRGTLVTVSS
VL: DIQMTQSPSSLSASVGDRVTITCRVSQGISNSLAWYQQKPGKAPKLLIYAASSLQSGVPSRFSGSGSGTDFTLTISSLQPEDFATYYCQQSYSTVYTFGQGTKLEIK
notes: as for B1
B10: GITR-Mab-41 scFv (scFv, V domains shown)
VH: QVQLVQSGAEVKKPGASVKVSCKASGGSFSDYAVSWVRQAPGQGLEWMGWMNPNSGNTGYAQKFQGRVTMTRDTSTSTVYMELSSLRSEDTAVYYCARELVRDGYNFALDYWGQGTLVTVSS
VL: B9 VL with V25A, G28D, S30R, S32D, Y92F, V95F
notes: as for B1
B11: GITR-Mab-23 scFv (scFv, V domains shown)
VH: EVQLLESGGGLVQPGGSLRLSCAASGFPFSTYAIHWVRQAPGKGLEWVSAISGSGGSTYYADSVKGRFTISRDNSKNTLYLQMNSLRAEDTAVYYCAGPDWYFDLWGRGTLVTVSS
VL: B9 VL with V25A, G28A, S53T, S56R, S91Y, V95P
notes: as for B1
B12: GITR-Mab-35 scFv (scFv, V domains shown)
VH: QVQLVQSGAEVKKPGASVKVSCKASGYTFTNYYMHWVRQAPGQGLEWMGLITPSGGRTKYAQKFQGRVTMTRDTSTSTVYMELSSLRSEDTAVYYCAREMEYSSSWYWFDPWGQGTLVTVSS
VL: B8 VL with D28G, N31S, E50A, V53T, E55Q, T93S, Q95P, Y96L, Q100G
notes: as for B1
B13: GITR-Mab-44 scFv (scFv, V domains shown)
VH: QVQLVQSGAEVKKPGASVKVSCKASGYTFTSHDIDWVRQAPGQGLEWMGWINPSGDSTSYAQKFQGRVTMTRDTSTSTVYMELSSLRSEDTAVYYCARYYGGNSYAFDIWGQGTMVTVSS
VL: B9 VL with V25A, Q27E, G28S, N31P, S32W, L33V, S53T, S91G, Y92T, V95P
notes: as for B1
B14: GITR-Mab-42 scFv (scFv, V domains shown)
VH: QVQLVQSGAEVKKPGASVKVSCKASGYIFTNYWIQWVRQAPGQGLEWMGWINPHSGATKYAERFQGRVTMTRDTSTSTVYMELSSLRSEDTAVYYCARGLGSAFDIWGQGTMVTVSS
VL: not shown
notes: as for B1
B15: GITR-Mab-43 scFv (scFv, V domains shown)
VH: QVQLVQSGAEVKKPGASVKVSCKASGYTFTSHDIDWVRQAPGQGLEWMGWMNPNNGNTVYAQRFQGRVTMTRDTSTSTVYMELSSLRSEDTAVYYCARWKVYSGSYYGGAGYFDLWGRGTLVTVSS
VL: DIQMTQSPSSLSASVGDRVTITCRASQSISSYLNWYQQKPGKAPKLLIYRASHLEGGVPSRFSGSGSGTDFTLTISSLQPEDFATYYCQQADSLPLTFGQGTKVEIK
notes: as for B1
B16: GITR-Mab-37 scFv (scFv, V domains shown)
VH: QVQLVQSGAEVKKPGASVKVSCKASGYTFTSYYMHWVRQAPGQGLEWMGWINPNSGGTNYAQKFQGRVTMTRDTSTSTVYMELSSLRSEDTAVYYCASPGDYCSGGSCYSDDAFDIWGQGTMVTVSS
VL: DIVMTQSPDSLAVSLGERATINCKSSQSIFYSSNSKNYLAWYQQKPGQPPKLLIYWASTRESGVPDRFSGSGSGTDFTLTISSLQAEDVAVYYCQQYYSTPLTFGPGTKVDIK
notes: as for B1
B17: GITR-Mab-48 scFv (scFv, V domains shown)
VH: QVQLVQSGAEVKKPGASVKVSCKASGYSFTSHDIDWVRQAPGQGLEWMGWINPNSGGTNYAQKFQGRVTMTRDTSTSTVYMELSSLRSEDTAVYYCARIRGYYGSGSYHDAFDIWGQGTTVTVSS
VL: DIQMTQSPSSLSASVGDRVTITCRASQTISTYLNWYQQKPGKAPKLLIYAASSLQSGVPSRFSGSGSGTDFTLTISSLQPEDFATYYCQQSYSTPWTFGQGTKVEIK
notes: as for B1

Columns and labels:
Assay in all cases: ELISA, scFv periplasmic extract on coated His6-GITR
human His6-GITR = target: T1, human His6-GITR
Description: (§1) The SuperHuman-2.0 scFv Antibody Library (available from Distributed Bio, South San Francisco, Calif.) was used to perform selection with human, cynomolgus or mouse GITR proteins. Selected phage clones from overnight growth were inoculated into wells in 96 well deep well plates containing 1 mL of medium. scFv expression was induced by addition of IPTG (Teknova) to a final concentration of 1 mM. Plates were grown overnight after induction. To prepare periplasmic extracts (PPE), the plates containing the phage clones were centrifuged at 2500 rpm for 10 min, the supernatant discarded and then pellets treated with 75 μL of cold periplasmic extract buffer with appropriate concentration of protease inhibitors (Complete Mini, EDTA-free -Roche Applied Biosciences—Cat No 1836170). After shaking at room temperature for 10 min, 225 μL of cold ddH2O with added protease inhibitor (1 tablet/50 mL) was added per well and mixed by pipetting up and down. PPE extraction was completed by incubation at room temperature for an additional 1 hr. The plates were then centrifuged at 4000 rpm for 20 minutes and 200 μL of PPE supernatant was collected from each well and transferred to a new plate which was then blocked with equal volume of 4% milk (2% final) to prepare blocked PPE extracts. In the meantime, Maxisorp plates (Nunc 442404) coated with relevant antigen (human, mouse or cynomolgus monkey His6-GITR) at 50 μl/well of 1 μg/mL antigen or 2% BSA in PBS as control were prepared for ELISA analyses. Next, 50 μL of each blocked PPE extract was transferred to the pre-blocked ELISA plates coated with the relevant antigens. After incubation and washing 3× with PBS, 50 μL of anti-V5 tag antibody (tag included in the phage display constructs, Invitrogen Cat No R960-25) at 1:5000 dilution in 2% milk was added and the plates were incubated for 1 hr. […] After further washing 3× with PBST, 50 μl/well of TMB substrate was added and the plates were developed until positive controls were visible. The reaction was stopped with 50 μl/well of 2N H2SO4. Plates were read at 450 nm to determine ELISA signal from bound PPE derived scFv.

[1] = target: T2, cynomolgus monkey His6-GITR
Description: as §1

mouse His6-GITR = target: T3, mouse His6-GITR
Description: as §1

Row | Binder | hGITR-His/BKG (human His6-GITR) [fold over background] | cGITR-His/BKG [1] [fold over background] | mGITR-His/BKG (mouse His6-GITR) [fold over background]
1 | B1 | 8.8 | 1.4 | 0.9
2 | B2 | 9.6 | 10.3 | 16.1
3 | B3 | 17.7 | 1.3 | 1
4 | B4 | 4.2 | 4 | 4.4
5 | B5 | 13.9 | 15.5 | 23.2
6 | B6 | 13 | 21 | 24.9
7 | B7 | 7.7 | 1.1 | 1.2
8 | B8 | 4 | 5.3 | 6.5
9 | B9 | 18 | 4.9 | 1
10 | B10 | 9.9 | 10.3 | 10.4
11 | B11 | 35.6 | 23.2 | 0.9
12 | B12 | 25.3 | 0.9 | 0.9
13 | B13 | 12.4 | 12.3 | 15.6
14 | B14 | 5.5 | 4.2 | 1
15 | B15 | 11.7 | 12 | 14.6
16 | B16 | 13.2 | 11.7 | 13.7
17 | B17 | 9.4 | 8.9 | 9.5
